Data taken from article PMC5942590.
Like-named read-outs stand apart in the source and are kept apart here.

Experiments:
[1] = target: HSV-1 glycoprotein B construct gBΔ71 (residues 72-904) (Herpes Simplex Virus type 1 (HSV-1)) (UniProt P06437); assay: crystal structure
[2] = target: HSV-1 glycoprotein B construct gBΔ71 (residues 72-904) (Herpes Simplex Virus type 1 (HSV-1)) (UniProt P06437); assay: crystal structure; remark: listed apart in the source

HSV-1 glycoprotein B construct gBΔ71 (residues 72-904) (from UniProt P06437 72-904) (natural protein)
stoichiometry N [1]: 3
stoichiometry N [2]: 3
